Experimental data: patent US20260116971A1 (published 2026)
Positions count from the first letter of the chain named. One block for each binder: values may come before it.

Tests used:
[1] = molecular target: T1, Chlorocebus (African green monkey) Nectin-2 (Chlorocebus (African green monkey)); assay: FACS binding; Vero cells
T1 chain: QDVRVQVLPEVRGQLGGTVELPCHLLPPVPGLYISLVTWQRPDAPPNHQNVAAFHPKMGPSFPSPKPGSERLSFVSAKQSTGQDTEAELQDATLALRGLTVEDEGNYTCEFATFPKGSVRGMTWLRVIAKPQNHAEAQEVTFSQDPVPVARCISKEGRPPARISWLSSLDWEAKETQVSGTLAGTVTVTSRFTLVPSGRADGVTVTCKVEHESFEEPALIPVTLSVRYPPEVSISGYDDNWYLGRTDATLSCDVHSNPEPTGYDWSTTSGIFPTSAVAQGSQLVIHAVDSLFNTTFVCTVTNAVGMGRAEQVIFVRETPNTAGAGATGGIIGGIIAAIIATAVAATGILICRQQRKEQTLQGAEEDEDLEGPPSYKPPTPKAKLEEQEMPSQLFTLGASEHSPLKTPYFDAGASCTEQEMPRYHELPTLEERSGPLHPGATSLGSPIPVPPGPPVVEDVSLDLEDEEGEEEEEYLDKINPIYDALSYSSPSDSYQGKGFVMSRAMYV

[2] = molecular target: T2, cynomolgus (Cyno) monkey (Macaca fascicularis) Nectin-2 (cynomolgus monkey (Macaca fascicularis), UniProt A0A2K5U084 32-538); assay: FACS binding; CHO cells expressing cyno Nectin-2
T2 chain: T1 chain with N47D, E70Q, G82R, I481V

EC50 [1]: 0.16 nM
EC50 [2]: 0.2 nM
B1: anti-Nectin-2 monoclonal antibody clone 11 (antibody, V domains shown)
VH: EVQLQQSGTVLTRPGASVKMSCKASGYIFTSYWIHWVKQRPGQGLEWIGAVYPGNSDSNYNQKFKAKAKLTAVTSTSTAYMELSSLTSEDSAVYYCTKLVGTFDYWGQGTTLTVSS
VL: DIVMTQSQKFMSSSIGDRVSVTCKASQNVGINVVWYQQRAGQSPKTLIYSASYRYSGVPDRFTGSGSGTDFTLTISNVQSEDLAEYFCQQYNTNPFTFGSGTKLEIK

EC50 [1]: 0.23 nM
EC50 [2]: 0.66 nM
B2: anti-Nectin-2 monoclonal antibody clone 7 (antibody, V domains shown)
VH: DVNLVESGGGLVKPGGSLKLSCAASGFTFSRFTMSWVRQTPEKTLDWVATISSGGSYTYYPDSVKGRFTISRDNAKNTLYLQMSSLKSEDTAMYYCTRDRDFYGPYYAMDYWGQGTSVTVSS
VL: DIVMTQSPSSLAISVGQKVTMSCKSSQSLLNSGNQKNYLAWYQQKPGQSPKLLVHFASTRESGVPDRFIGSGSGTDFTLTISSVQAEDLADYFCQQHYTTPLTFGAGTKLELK
